Assay results from patent US20240254231A1 (published 2024).
Changes are numbered by the printed parent chain. One block for each binder: values may come before it.

Columns and labels:
canine PD-1 ECD-mFc = biological target: T1, canine PD-1 ECD-mFc; test: SPR; avid
T1 chain: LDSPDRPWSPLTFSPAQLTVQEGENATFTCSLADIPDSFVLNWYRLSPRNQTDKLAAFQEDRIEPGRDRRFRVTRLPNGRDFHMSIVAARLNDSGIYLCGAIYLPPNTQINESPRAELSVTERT

canine PD-1 ECD-6His = biological target: T2, canine PD-1 ECD-6His; test: SPR; monovalent binding
T2 chain: T1 chain

[1] = biological target: T3, canine PD-1, full-length, membrane-embedded; test: flow cytometry; apparent Kd of cell binding
T3 chain: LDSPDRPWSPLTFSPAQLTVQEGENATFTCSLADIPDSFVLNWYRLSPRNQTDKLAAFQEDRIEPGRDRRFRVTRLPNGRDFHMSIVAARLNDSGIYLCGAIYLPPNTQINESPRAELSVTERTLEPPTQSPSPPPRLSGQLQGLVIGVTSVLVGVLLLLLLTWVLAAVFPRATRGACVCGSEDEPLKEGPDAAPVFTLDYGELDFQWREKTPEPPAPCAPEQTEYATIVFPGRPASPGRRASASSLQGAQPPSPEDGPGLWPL

PMX-147 = test: flow cytometry; apparent Kd of cell binding
PMX-149 = test: flow cytometry; apparent Kd of cell binding
PMX-145 = test: flow cytometry; apparent Kd of cell binding
PMX-150 = test: flow cytometry; apparent Kd of cell binding

B1: PMX152 (antibody, V domains shown)
VH: EVQLVESGGDLVKPGGSLRLSCVASGFTFSRYYMNWVRQAPGKGPQWVAYINNAGSDRNYVDAVKGRFTISRDNAKNTLYLQMNSLRAEDTAVYYCASEIRGVVVVGHLDYWGQGTLVTVSS
VL: SYVLTQLPSKSVTLNQPAHITCGGDNIGSKSVHWYQQKLGQAPVLIIYYDSIRPTGIPERFSGATSGNTATLTISGALAEDEADYYCQVWDSSAKAWVFGEGTQLTVL
Kd (canine PD-1 ECD-mFc): 0.0318 nM
Kd (canine PD-1 ECD-6His): 24.2 nM

B2: PMX151 (antibody, V domains shown)
VH: EVQLVESGGDLVKSGGSLRLSCVASGFTFNTYSMNWVRQAPGKGLQWVARIKSSGSSTTYADAVKGRFTVSRDIAKNTLFLQMNSLRAEDTALYYCASEPGARYEIYFVESFFDYWGQGTLVTVSS
VL: B1 VL with N15K, I52S, T65N, K95Q, V98I
Kd (canine PD-1 ECD-mFc): 0.0322 nM
Kd (canine PD-1 ECD-6His): 1.7 nM
Kd [1]: 2.97 nM

B3: PMX125 (antibody, V domains shown)
VH: EVQLVESGGDLVKPGGSLRLSCVASGFSFSRYHMSWVRQAPGKGLQWVAYIISGGITTSYADAVKGRFTISRDNAKNTLFLQMNSLRAEDTAVYYCATYGSYFFDKWGQGTLVTVSS
VL: DIVMTQTPLSLSVSPGETASISCKASQSLLHSDGKSYLNWFRQKPGQSPQRLIYRVSNRDPGVPDRFSGSGSGTDFTLRISRVEADDTGLYYCGQVIQDPTFGAGTKVELK
Kd (canine PD-1 ECD-mFc): 0.0348 nM
Kd (canine PD-1 ECD-6His): 7.7 nM
Kd [1]: 1.07 nM

B6: PD-1 (receptor)
chain: T3 chain
Kd (PMX-147): 2.65 nM
Kd (PMX-149): 8.23 nM
Kd (PMX-145): 5.75 nM
Kd (PMX-150): 6.83 nM

More lines, now with the values ahead:

Kd (canine PD-1 ECD-mFc): 0.0024 nM
Kd (canine PD-1 ECD-6His): 2.2 nM
Kd [1]: 0.86 nM
B4: PMX127 (antibody, V domains shown)
VH: B3 VH with I52V, T57S, K106T
VL: B3 VL with S22F

Kd (canine PD-1 ECD-mFc): 0.0297 nM
Kd (canine PD-1 ECD-6His): 6.8 nM
Kd [1]: 1.05 nM
B5: PMX126 (antibody, V domains shown)
VH: EVQLVESGGDLVKPAGSLRLSCLASGFTFSSYSMSWVRQAPEKGLQSVAGINSDGDRTYYTDAVKGRFTISRDNAKSTVYLQMNSLRAEDTAMYYCVRGFSSFNAFGYWGQGTLVTVSS
VL: DIVMTQTPLSLSVSPGETASISCKASQSLLHSDGNTYLSWFRQKPGQSPHRLIYAVSHRHPGVPDRFSGSGSGTDFTLRISRVEADDAGLYYCGQVIQDPWTFGAGTKVELK
